In patent EP4702986A1, “POLYPEPTIDE AND USE THEREOF” (Biocells (Beijing) Biotech Co., Ltd., priority 2023, dated 2024):
“And” between values parts separate entries of the source, which are not always exact repeats. Equal entries are not always repeated. Where two headings read alike, the source gives them in different places. Numbered stars: 1 amine (or outer) side, 2 acyl side, 3 side chain; on linkers, the order of the positions; unused ones are H or OH. Square brackets hold non-standard residues; d marks the D form. Side chains are listed from the residue outwards. Ends that are not written are not given here. * marks the point of attachment. C18 diacid = O=C(O)CCCCCCCCCCCCCCCCC(=O)*; γGlu = O=C(O)[C@H](CCC(=O)[*:2])N[*:1]; Hexadienoyl(2E,4E) = C/C=C/C=C/C(=O)*; NMeI = CC[C@H](C)[C@H](NC)C(=O)O; NMeL = CN[C@@H](CC(C)C)C(=O)O; Fumaroyl = O=C(O)/C=C/C(=O)*; Suc = O=C(CCC(=O)[*:2])[*:1]; AEEA = NCCOCCOCC(=O)O

Target: T1, human ETB receptor (Homo sapiens, UniProt P24530)
T1 construct: expressed in transfected cells; host or cells: 293T-17 cells, transient transfection
T1 sequence (P24530 27-442): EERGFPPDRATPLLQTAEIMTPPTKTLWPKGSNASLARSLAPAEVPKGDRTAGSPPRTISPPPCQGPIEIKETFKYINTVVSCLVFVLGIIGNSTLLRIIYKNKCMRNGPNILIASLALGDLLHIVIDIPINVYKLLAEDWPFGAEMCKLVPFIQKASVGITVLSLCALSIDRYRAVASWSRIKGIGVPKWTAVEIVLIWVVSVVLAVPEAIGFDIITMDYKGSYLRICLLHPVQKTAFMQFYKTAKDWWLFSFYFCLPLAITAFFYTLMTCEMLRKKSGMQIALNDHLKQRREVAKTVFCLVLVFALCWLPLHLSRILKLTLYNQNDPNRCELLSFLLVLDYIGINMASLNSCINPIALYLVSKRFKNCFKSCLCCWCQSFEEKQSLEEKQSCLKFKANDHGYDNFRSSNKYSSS
Test: Screening of polypeptides for activity on human ETB receptor (IP-One Gq kit, % of positive control IRL1620)
Type: cell-based
Method: 293T-17 cells were seeded at a density of 650,000 cells per well in a 6-well plate and cultured overnight in an incubator at 37°C and 5% CO2. Afterward, the cells were transfected with an expression vector, PCDNA3.1-hETB which contained a human ETB receptor gene, at a plasmid concentration of 2.5 µg per well. The cells were further cultured for 48 hours, and green fluorescence expression was observed under a fluorescence microscope. The cells were then digested with trypsin and counted. The activity of compounds on the human ETB receptor was determined with the IP-One Gq kit from Cisbio Bioassays. The cells were suspended in Stim Buffer provided in the kit and the cell suspension was added to a 96-well detection plate at 7 µL cell suspension (containing 30,000 cells) per well. The polypeptides to be screened for activity (prepared according to the Preparation Example of the invention) and polypeptide IRL1620 as positive control were dissolved in Stim B to be at a concentration of 2×, and 7 µL was added to the test cells, while 7 µL of PBS solution was added to the cells in the negative control wells. IRL1620 was used as the positive control polypeptide. The plate was sealed and incubated at 37°C for 1 hour in a cell culture incubator. Test wells, positive control wells, and PBS control wells were each added with 3 µL of IP1 d2 working solution and 3 µL of IP1 Tb cryptotate Antibody working solution. The plate was then sealed and incubated in the dark at room temperature (25°C±5°C) for 1 hour. The plate seal was removed, and the […] at 665 nm and 620 nm was measured with an ID5 microplate reader. The ratio of the acceptor emission signal to the donor emission signal, i.e., the value of (signal at 665 nm/signal at 620 nm)×10^4, was calculated for each well. With F1 representing the average value of values of signal at 665 nm/signal at 620 nm determined for the test sample at a specific concentration, F2 representing the average value of values of signal at 665 nm/signal at 620 nm determined for the positive control IRL1620 at the same concentration, and T1 representing the average value of values of signal at 665 nm/signal at 620 nm determined for the PBS negative control, the percentage of activity of the test polypeptide sample relative to the positive control sample IRL1620 is equal to (F1-T1)×100/(F2-T1). hETB sequence (NCBI accession number NM_000115.5).

Substance | hETBR agonist activity, percentage of activity relative to IRL1620 | hETBR agonist activity, percentage of activity relative to IRL1620 (@10nM) | hETBR agonist activity, percentage of activity relative to IRL1620 (@1µM) | hETBR agonist activity, percentage of activity relative to IRL1620 (@10µM)
Fum-D cyclo(EEAK)YFAHK(-γE-AEEA-AEEA-ODDA)D(2-Abu)IW [BX-104] | -21.93%@100nM | -1299.77%@10nM |  | 
Fum-D cyclo(EEAK)YFAHK(-γE-AEEA-AEEA-ODDA)DIIW [BX-103] | 14.93%@100nM | 45.51%@10nM |  | 
Fum-D cyclo(EEAK)YFAHLDIIW (Fumaroyl-DEEAKYFAHLDIIW; lactam (positions not given here)) [BX-102] | 155.47% | 113.81% |  | 
Fum-DEE(C16)AVYFAHLDIIW ({Fumaroyl-Asp-Glu-E(C16)}-AVYFAHLDIIW; not fully specified; printed as Fum-DEE(C16)AVYFAHLDIIW) [BX14-1] |  |  | 15.80 %@1µM | 18.63%@10µM
Fum-DEEAK(-γE-AEEA-AEEA-ODDA)YFAHLDIIW [BX-67] (Fum-DEEAK with lipidated linker N-terminal) | 46.98%@100nM | 2.68%@10nM |  | 
Fum-DEEAK(-γE-AEEA-AEEA-ODDA)YFAHLDIIW [BX-109] (Fum-DEEAK with lipidated linker N-terminal) | 74.1%@100nM | -1095.4%@10nM |  | 
Fum-DEEAK(-γE-AEEA-AEEA-ODDA)YFAHLDVIW (Fum-DEEAK with lipidated linker N-terminal) [BX-110] | 132.61%@100nM | 138.99%@10nM |  | 
Fum-DEEAKYFAHK(-γE-AEEA-AEEA-ODDA)DIIW (Fumaroyl-DEEAKYFAHK([γGlu-AEEA-AEEA-C18 diacid])DIIW) [BX-107] | 100.37%@100nM | 50.48%@10nM |  | 
Fum-DEEAKYFAHK(-γE-AEEA-AEEA-ODDA)DVIW (Fumaroyl-DEEAKYFAHK([γGlu-AEEA-AEEA-C18 diacid])DVIW) [BX-108] | 9.56%@100nM | -1185.11%@10nM |  | 
Fum-DEEAKYFAHLDIIW (Fumaroyl-DEEAKYFAHLDIIW) [BX-105] | 253.05%@100nM | 64.66%@10nM |  | 
Fum-DEEAKYFAHLDVIW (Fumaroyl-DEEAKYFAHLDVIW) [BX-106] | 117.63%@100nM | 117.57%@10nM |  | 
Fum-DEEAVYFAHK(-γE-AEEA-AEEA-ODDA)DVIW (Fumaroyl-DEEAVYFAHK([γGlu-AEEA-AEEA-C18 diacid])DVIW) [BX-101] | 30.96% |  |  | 
Fum-DEEAVYFAHKDVIW (Fumaroyl-DEEAVYFAHKDVIW) [BX-23] | 89.28%@100nM | 26.12%@10nM |  | 
Fum-DEEAVYFAHL(N-Me)DI(N-Me)IW (Fumaroyl-DEEAVYFAH[NMeL]; not fully specified (C-terminus)) [BX-29] | 6.51%@100nM | 15.61%@10nM |  | 
Fum-DEEAVYFAHL(N-Me)DIIW (Fumaroyl-DEEAVYFAH[NMeL]; not fully specified (C-terminus)) [BX-28] | -10.73%@100nM | 8.27%@10nM |  | 
Fum-DEEAVYFAHLDVIW (Fumaroyl-DEEAVYFAHLDVIW) [FBX-7] | 99.81%@100nM | 91.89%@10nM |  | 
Fum-DEEAVYFAHOrn(-AEEA-AEEA-γE-ODDA)DIIW [BX-51] | 37.60%@100nM | 47.83%@10nM |  | 
Fum-DEEAVYFK(-γE-AEEA-AEEA-ODDA)HLDIIW (Fumaroyl-DEEAVYFK([γGlu-AEEA-AEEA-C18 diacid])-{H2N-Leu-Asp-Ile-Ile-Trp}) [BX-68] | -18.64%@100nM | -39.42%@10nM |  | 
Fum-DEEE(Biotin)VYFAHKDIIW [BX-16] | 22.24%@1µM and 14.10%@10µM |  |  | 
Fum-DEEEVYFAHK(-AEEA-AEEA-γE - ODDA)DIIW (Fumaroyl-DEEEVYFAHK([AEEA-AEEA-γGlu-C18 diacid])DIIW) [BX-60] | 4.84%@100nM | -15.72%@10nM |  | 
MeO-Fum-D cyclo(EEAK)YFAHLD(2-Abu)IW [BX-65] | 99.24%@100nM | 59.02%@10nM |  | 
MeO-Fum-DEEAVYFAHK(-γE-AEEA-AEEA-ODDA)DIIW ({MeO‑Fum}-DEEAVYFAHK([γGlu-AEEA-AEEA-C18 diacid])DIIW) [BX-75] | -10.59%@100nM | 14.68%@10nM |  | 
SA-DEEAVYFAHLDIIW ({Hexadienoyl(2E,4E)}-DEEAVYFAHLDIIW) [BX-111] | 64.98%@100nM | -11.84%@10nM |  | 
Suc-DEEAVYFAHL(N-Me)DI(N-Me)IW (Suc-DEEAVYFAH[NMeL]; not fully specified (C-terminus)) [BX-27] | 0.42%@100nM | 1.72%@10nM |  | 
Suc-DEEAVYFAHL(N-Me)DIIW (Suc-DEEAVYFAH[NMeL]; not fully specified (C-terminus)) [BX-26] | 30.58%@100nM | 11.94%@10nM |  | 
Suc-DEEAVYFAHLDI(N-Me)IW (Suc-DEEAVYFAHLDI[NMeI]W) [BX-25] | 28.86%@100nM | 19.19%@10nM |  | 
Suc-DEEAVYFAHOrn(-AEEA-AEEA-γE - ODDA)DIIW [BX-61] | 40.94%@100nM | 13.97%@10nM |  | 
